In PMC5037179 (Frontiers in Molecular Biosciences, 2016):

What was measured:
IscU (Escherichia coli) = IscU (Escherichia coli) (UniProt P0ACD4); settings: cited from earlier work
IscS [1] = biological target: T1, IscS (E. coli, UniProt P0A6B7 1-404); test: MST; IscS labelled with NT-647 at 52 nM, HscB serially diluted 1:1 from 600 uM (12 solutions); 20 mM Tris-HCl pH 8, 150 mM NaCl, 0.5 mM TCEP, 0.05% Tween-20; 25 C; 40-60% LED power, 17% IR-laser power; 1:1 stoichiometry assumed; settings: both partners purified
T1 construct: IscS, pyridoxal phosphate dependent cysteine desulfurase of the isc operon, E. coli; subcloned by PCR from bacterial genomic DNA; For MST only, IscS was labelled with the amine-reactive dye NT-647 (about 0.67 dye molecules per IscS, RED-NHS kit); unlabelled in all other experiments; also called desulfurase IscS; wild-type IscS; source: E. coli BL21(DE3), purified (Ni-NTA, TEV cleavage, gel …)

IscS [2] = biological target: T1, IscS; test: NMR titration; competition: 15N HSQC of 100 uM 15N-labelled HscB in complex with unlabelled IscS (1:1), titrated with CyaY or apo-Fdx up to 1:1:3; settings: both partners purified

T1 sequence (P0A6B7 whole entry): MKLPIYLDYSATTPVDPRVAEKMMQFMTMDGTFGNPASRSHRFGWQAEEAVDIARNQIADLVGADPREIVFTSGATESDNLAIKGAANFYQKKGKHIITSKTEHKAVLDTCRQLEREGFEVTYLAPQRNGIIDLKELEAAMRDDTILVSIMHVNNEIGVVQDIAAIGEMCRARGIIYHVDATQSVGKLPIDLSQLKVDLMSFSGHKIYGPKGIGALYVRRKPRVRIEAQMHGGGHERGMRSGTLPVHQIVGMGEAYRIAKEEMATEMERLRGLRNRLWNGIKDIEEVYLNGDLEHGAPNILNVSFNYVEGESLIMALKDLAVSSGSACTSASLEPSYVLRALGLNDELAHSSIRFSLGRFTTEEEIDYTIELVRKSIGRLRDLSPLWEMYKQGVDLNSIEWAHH
Chain of IscU (Escherichia coli) (P0ACD4 whole entry): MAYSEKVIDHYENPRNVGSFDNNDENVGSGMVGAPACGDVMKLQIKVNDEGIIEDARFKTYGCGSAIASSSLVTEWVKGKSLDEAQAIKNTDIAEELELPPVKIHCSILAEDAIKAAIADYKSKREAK

IscS (from UniProt P0A6B7)
Kd (IscU (Escherichia coli)): 10 µM

B1: HscB (natural protein, E. coli)
chain: MDYFTLFGLPARYQLDTQALSLRFQDLQRQYHPDKFASGSQAEQLAAVQQSATINQAWQTLRHPLMRAEYLLSLHGFDLASEQHTVRDTAFLMEQLELREELDEIEQAKDEARLESFIKRVKKMFDTRHQLMVEQLDNETWDAAADTVRKLRFLDKLRSSAEQLEEKLLDF
notes: HscB, co-chaperone of the isc operon, E. coli; subcloned by PCR from bacterial genomic DNA; Uniformly 15N-labelled (HSQC) or 2H,15N-labelled (cross saturation) for NMR; unlabelled in MST, cross-linking and when added to 15N IscU; also called co-chaperone HscB; source: E. coli BL21(DE3), purified (Ni-NTA, TEV cleavage, gel filtration)
Kd (IscS [1]): 10 to 30 µM

B2: apo-Fdx (natural protein, E. coli, UniProt P0A9R4 1-111, looked up)
chain: MPKIVILPHQDLCPDGAVLEANSGETILDAALRNGIEIEHACEKSCACTTCHCIVREGFDSLPESSEQEDDMLDKAWGLEPESRLSCQARVTDEDLVVEIPRYTINHAREH
notes: Fdx, ferredoxin of the isc operon, E. coli; subcloned by PCR from bacterial genomic DNA; also called ferredoxin; source: E. coli BL21(DE3), purified (Ni-NTA, TEV cleavage, gel filtration)
binding result (IscS [2]): binds
